Test results reported in article PMC5552277.

What was measured:
TFAM (WT) (human) [1] = experiment: AFM in liquid, fractional DNA contour coverage; settings: effective free TFAM concentration; Footprinting: 10 mM HEPES pH 7.5, 10 mM MgCl2, 10 mM CaCl2 (so in the source), 100 mM NaCl, 1 mM TCEP, 0.1 mg/mL BSA, 32°C; AFM buffer not in material
TFAM-CTΔ26 (human) = experiment: AFM in liquid, persistence length; settings: 100 nM CTΔ26 (33 nm) similar to 10 nM TFAM (30 nm); no looping enhancement; Footprinting: 10 mM HEPES pH 7.5, 10 mM MgCl2, 10 mM CaCl2 (so in the source), 100 mM NaCl, 1 mM TCEP, 0.1 mg/mL BSA, 32°C; AFM buffer not in material
[2] = target: TFAM-CTΔ26;POLRMT;TFB2M del221-246 (human;human?;human?) (UniProt Q00059+O00411+Q9H5Q4); experiment: DNase I footprinting; settings: Footprinting: 10 mM HEPES pH 7.5, 10 mM MgCl2, 10 mM CaCl2 (so in the source), 100 mM NaCl, 1 mM TCEP, 0.1 mg/mL BSA, 32°C; AFM buffer not in material
TFAM-CTΔ26;POLRMT;TFB2M del221-246 (human;human?;human?), sequence (O00411 42-1230, stated change not applied, chain 2 of 2): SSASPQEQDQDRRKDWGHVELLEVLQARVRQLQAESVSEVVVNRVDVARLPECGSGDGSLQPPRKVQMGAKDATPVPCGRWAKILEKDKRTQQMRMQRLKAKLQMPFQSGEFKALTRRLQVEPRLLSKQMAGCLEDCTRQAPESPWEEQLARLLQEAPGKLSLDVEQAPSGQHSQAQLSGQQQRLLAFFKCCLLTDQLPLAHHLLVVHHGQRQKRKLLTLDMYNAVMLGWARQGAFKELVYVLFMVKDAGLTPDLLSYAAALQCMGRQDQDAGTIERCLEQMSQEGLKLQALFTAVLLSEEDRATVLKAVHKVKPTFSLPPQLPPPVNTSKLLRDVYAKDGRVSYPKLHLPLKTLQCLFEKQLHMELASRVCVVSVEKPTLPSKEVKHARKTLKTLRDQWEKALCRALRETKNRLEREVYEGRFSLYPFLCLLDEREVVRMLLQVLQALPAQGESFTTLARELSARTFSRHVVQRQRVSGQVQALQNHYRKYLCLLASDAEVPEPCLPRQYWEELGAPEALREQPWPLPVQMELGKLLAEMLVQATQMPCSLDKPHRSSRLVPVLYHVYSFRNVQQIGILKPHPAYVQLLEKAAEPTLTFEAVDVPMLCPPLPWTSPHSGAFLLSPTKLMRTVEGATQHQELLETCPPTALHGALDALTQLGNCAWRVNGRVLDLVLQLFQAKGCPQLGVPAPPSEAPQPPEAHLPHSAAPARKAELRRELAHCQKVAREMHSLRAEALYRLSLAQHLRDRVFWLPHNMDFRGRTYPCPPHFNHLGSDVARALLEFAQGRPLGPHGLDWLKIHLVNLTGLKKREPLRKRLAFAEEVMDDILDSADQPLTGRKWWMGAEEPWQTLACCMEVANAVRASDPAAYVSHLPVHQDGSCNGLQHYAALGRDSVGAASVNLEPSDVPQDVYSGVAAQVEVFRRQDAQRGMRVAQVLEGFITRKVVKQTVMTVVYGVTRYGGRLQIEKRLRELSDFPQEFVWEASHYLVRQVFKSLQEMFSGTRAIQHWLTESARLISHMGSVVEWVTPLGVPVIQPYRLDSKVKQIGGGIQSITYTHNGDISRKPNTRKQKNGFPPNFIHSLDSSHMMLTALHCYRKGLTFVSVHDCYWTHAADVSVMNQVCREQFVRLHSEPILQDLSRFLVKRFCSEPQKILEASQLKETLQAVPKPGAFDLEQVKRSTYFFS
TFAM-CTΔ26;POLRMT;TFB2M del221-246 (human;human?;human?), sequence (Q9H5Q4 20-396, stated change not applied, chain 3 of 2): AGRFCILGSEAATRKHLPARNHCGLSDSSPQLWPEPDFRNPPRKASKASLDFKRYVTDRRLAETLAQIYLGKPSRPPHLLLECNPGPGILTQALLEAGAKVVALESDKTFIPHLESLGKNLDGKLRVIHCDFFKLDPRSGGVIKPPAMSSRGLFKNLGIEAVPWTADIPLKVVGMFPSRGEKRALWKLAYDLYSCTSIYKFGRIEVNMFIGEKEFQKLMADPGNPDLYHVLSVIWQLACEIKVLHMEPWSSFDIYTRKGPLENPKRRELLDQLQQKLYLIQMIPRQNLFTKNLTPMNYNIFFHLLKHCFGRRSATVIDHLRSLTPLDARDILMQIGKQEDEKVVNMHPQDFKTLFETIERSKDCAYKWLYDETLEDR

TFAM (WT) (human) [3] = target: T1, TFAM (WT) (human) (UniProt Q00059); experiment: DNase I footprinting; settings: Footprinting: 10 mM HEPES pH 7.5, 10 mM MgCl2, 10 mM CaCl2 (so in the source), 100 mM NaCl, 1 mM TCEP, 0.1 mg/mL BSA, 32°C; AFM buffer not in material
T1 sequence: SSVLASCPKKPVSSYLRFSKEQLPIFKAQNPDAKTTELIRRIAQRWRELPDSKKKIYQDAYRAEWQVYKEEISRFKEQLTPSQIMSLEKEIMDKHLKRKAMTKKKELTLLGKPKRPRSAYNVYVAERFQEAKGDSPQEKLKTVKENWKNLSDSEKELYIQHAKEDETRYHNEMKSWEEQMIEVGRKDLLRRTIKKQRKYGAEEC

Substance | Kd (TFAM (WT) (human) [1]) [nM] | binding signal (fold weaker than WT TFAM) (TFAM-CTΔ26 (human)) | binding [2] | binding (TFAM (WT) (human) [3])
mtDNA construct (AFM) | 59 | 10 | – | –
puc18 control construct (AFM) | 200 | – | – | –
ATTGCTTTGAGGAGGTAAGCTACATAAACTGTGGGGGGTGTCTTTGGGGTTTGGTTGGTTCGGGGTATGGGGTTAGCAGCGGTGTGTGTGTGCTGGGTAGGATGGGCGGGGGTTGTATTGATGAGATTAGTAGTATGGGAGTGGGAGGGGAAAATAATGTGTTAGTTGGGGGGTGACTGTTAAAAGTGCATACCGCCAAAAGATAAAATTTGAAATCTGGTTAGGCTGGTGTT (double strand) [dual promoter template (DPT-WT)] | – | – | binds more weakly | binds
